Data taken from the supplement of paper PMC10065799, “High-throughput profiling of sequence recognition by tyrosine kinases and SH2 domains using bacterial peptide display” (eLife, 2023).

Tests used:
[1] = test system: AncSZ; experiment: phosphorylation enrichment, bacterial display (enrichment ratio); higher = better substrate or ligand; peptides without Tyr show the background
[2] = biological target: EPHB1 (UniProt P54762); experiment: as above
[3] = biological target: EPHB2 (UniProt P29323); experiment: as above
Sequence of EPHB2 (P29323 whole entry, looked up): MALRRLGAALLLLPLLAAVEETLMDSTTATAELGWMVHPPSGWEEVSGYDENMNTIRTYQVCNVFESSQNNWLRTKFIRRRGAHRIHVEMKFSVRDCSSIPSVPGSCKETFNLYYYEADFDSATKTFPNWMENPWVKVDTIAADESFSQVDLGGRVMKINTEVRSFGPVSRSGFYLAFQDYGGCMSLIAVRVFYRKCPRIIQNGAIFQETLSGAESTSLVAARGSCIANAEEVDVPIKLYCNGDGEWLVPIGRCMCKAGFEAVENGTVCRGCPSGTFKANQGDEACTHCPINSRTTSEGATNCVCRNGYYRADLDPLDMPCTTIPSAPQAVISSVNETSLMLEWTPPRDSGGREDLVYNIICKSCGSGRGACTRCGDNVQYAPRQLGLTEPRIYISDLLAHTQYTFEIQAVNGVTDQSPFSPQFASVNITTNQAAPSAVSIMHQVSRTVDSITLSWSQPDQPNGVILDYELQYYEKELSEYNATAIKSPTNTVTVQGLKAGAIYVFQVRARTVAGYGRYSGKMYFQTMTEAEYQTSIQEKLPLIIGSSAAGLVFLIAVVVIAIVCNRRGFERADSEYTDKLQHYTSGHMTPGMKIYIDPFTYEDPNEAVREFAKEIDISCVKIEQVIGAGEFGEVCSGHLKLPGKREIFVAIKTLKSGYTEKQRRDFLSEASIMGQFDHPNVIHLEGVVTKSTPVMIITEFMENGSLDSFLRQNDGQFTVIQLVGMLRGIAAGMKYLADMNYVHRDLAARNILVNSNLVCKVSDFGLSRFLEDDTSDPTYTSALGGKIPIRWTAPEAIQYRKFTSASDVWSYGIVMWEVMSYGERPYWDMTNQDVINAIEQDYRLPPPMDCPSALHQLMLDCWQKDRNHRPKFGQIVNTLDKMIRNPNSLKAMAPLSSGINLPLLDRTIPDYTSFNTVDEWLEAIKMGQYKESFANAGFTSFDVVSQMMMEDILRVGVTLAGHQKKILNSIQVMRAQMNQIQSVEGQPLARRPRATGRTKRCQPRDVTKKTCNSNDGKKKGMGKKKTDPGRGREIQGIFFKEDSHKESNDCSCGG

[4] = biological target: FGFR1 (UniProt P11362); experiment: as above
Sequence of FGFR1 (P11362 whole entry, looked up): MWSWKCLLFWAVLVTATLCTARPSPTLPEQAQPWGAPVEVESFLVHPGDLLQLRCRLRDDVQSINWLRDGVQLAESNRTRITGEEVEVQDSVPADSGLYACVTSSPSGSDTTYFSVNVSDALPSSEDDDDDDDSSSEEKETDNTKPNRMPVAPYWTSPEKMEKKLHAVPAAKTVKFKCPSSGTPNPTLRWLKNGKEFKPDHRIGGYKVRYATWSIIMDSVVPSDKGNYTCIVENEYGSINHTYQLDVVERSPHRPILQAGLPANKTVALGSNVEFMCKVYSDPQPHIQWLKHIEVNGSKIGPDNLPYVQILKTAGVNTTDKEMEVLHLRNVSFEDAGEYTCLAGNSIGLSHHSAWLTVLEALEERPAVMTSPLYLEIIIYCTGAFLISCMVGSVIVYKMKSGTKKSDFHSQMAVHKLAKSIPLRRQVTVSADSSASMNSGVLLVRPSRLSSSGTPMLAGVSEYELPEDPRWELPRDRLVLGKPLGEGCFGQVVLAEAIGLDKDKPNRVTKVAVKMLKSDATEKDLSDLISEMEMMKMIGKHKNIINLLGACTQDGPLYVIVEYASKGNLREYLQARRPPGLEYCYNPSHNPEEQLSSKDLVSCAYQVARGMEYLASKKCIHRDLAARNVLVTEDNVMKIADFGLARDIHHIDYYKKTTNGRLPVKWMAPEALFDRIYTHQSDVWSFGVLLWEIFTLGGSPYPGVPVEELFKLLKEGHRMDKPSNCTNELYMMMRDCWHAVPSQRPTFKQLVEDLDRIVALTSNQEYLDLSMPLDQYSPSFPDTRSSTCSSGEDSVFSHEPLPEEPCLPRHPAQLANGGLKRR

[5] = biological target: FGFR3 (UniProt P22607); experiment: as above
[6] = test system: Fer (mouse); experiment: as above
[7] = biological target: Fes (UniProt P07332); experiment: as above
[8] = biological target: Fyn (UniProt P06241); experiment: as above
Sequence of Fyn (P06241 whole entry, looked up): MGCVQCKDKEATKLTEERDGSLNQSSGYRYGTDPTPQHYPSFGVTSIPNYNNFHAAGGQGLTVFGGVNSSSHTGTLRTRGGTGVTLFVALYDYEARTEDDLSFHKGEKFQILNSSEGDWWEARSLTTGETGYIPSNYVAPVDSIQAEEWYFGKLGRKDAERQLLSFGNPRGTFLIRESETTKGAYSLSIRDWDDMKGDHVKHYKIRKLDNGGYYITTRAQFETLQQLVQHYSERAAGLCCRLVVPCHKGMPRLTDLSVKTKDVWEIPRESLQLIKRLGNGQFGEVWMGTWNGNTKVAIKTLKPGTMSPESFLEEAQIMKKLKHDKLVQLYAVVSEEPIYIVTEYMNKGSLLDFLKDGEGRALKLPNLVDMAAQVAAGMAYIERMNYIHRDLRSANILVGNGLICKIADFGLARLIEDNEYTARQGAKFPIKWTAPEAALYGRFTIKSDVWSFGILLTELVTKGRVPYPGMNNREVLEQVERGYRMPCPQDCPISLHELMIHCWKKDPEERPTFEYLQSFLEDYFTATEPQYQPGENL

[9] = biological target: Hck (UniProt P08631); experiment: as above
Sequence of Hck (P08631 whole entry, looked up): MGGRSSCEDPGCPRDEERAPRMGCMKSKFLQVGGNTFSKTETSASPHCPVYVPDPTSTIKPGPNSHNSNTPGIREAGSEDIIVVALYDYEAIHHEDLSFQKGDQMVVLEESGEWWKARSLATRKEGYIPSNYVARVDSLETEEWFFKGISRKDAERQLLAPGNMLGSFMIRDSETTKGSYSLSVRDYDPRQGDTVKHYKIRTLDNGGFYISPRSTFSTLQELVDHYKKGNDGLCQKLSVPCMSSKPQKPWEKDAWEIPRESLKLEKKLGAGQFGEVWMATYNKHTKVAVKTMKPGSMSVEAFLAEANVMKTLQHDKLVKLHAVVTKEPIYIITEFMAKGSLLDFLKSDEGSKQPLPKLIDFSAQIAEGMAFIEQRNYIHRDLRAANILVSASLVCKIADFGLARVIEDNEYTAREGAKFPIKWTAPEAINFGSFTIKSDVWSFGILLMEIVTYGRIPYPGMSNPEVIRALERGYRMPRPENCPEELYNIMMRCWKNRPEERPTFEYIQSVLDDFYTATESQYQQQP

[10] = biological target: Jak2 (UniProt O60674); experiment: as above
Sequence of Jak2 (O60674 whole entry, looked up): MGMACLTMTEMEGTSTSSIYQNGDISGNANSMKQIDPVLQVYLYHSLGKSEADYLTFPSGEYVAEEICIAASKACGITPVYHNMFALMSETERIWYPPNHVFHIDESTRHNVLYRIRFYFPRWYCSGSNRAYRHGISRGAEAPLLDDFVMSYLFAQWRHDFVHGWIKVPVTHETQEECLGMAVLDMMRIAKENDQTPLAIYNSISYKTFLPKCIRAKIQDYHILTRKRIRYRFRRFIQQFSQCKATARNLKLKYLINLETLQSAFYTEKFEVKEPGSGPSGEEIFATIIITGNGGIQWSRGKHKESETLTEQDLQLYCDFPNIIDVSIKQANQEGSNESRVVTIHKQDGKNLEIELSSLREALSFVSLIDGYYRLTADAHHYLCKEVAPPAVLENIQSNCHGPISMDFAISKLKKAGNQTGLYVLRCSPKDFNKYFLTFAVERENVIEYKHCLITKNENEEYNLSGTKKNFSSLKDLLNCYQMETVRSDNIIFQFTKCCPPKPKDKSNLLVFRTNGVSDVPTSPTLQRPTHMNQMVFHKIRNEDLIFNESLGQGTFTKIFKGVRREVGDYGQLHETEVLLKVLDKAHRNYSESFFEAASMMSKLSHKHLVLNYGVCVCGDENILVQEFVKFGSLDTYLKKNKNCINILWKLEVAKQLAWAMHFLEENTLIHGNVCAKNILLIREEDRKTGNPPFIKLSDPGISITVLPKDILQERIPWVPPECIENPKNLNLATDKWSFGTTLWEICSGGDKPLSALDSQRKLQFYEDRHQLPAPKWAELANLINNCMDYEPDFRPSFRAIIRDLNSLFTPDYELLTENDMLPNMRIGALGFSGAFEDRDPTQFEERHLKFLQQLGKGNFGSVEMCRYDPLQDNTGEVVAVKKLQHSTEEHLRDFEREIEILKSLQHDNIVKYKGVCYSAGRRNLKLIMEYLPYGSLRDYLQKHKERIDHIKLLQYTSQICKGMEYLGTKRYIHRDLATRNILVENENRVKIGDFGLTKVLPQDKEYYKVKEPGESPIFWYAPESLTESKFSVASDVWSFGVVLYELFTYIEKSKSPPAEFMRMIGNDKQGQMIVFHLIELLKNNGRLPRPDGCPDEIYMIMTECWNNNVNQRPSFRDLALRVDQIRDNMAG

[11] = biological target: MERTK (UniProt Q12866); experiment: as above
[12] = test system: c-Abl (mouse); experiment: as above
[13] = test system: c-Src; experiment: as above
[14] = biological target: Grb2 SH2 (UniProt P62993); experiment: SH2 binding enrichment of the phosphorylated peptide, bacterial display (enrichment ratio); higher = better substrate or ligand; peptides without Tyr show the background
[15] = biological target: SHP2-C SH2; experiment: as above
[16] = biological target: c-Src SH2; experiment: as above
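Wherever SH2 binding enrichment of the phosphorylated peptide, bacterial display is given: peptide library displayed on the E. coli surface as eCPX fusions, selected cells deep-sequenced, score is each peptide's frequency after selection divided by its frequency in the input.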
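Wherever phosphorylation enrichment, bacterial display is given: 11-residue human phosphosite peptides and single-mutation variants displayed on the E. coli surface, counted by deep sequencing, each peptide's frequency after selection divided by its frequency in the unselected input library; frequency after pTyr selection over input frequency; kinase dosed for 20-30% of maximal phosphorylation in three min.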

Sequence of EPHB1 (P54762 whole entry, looked up): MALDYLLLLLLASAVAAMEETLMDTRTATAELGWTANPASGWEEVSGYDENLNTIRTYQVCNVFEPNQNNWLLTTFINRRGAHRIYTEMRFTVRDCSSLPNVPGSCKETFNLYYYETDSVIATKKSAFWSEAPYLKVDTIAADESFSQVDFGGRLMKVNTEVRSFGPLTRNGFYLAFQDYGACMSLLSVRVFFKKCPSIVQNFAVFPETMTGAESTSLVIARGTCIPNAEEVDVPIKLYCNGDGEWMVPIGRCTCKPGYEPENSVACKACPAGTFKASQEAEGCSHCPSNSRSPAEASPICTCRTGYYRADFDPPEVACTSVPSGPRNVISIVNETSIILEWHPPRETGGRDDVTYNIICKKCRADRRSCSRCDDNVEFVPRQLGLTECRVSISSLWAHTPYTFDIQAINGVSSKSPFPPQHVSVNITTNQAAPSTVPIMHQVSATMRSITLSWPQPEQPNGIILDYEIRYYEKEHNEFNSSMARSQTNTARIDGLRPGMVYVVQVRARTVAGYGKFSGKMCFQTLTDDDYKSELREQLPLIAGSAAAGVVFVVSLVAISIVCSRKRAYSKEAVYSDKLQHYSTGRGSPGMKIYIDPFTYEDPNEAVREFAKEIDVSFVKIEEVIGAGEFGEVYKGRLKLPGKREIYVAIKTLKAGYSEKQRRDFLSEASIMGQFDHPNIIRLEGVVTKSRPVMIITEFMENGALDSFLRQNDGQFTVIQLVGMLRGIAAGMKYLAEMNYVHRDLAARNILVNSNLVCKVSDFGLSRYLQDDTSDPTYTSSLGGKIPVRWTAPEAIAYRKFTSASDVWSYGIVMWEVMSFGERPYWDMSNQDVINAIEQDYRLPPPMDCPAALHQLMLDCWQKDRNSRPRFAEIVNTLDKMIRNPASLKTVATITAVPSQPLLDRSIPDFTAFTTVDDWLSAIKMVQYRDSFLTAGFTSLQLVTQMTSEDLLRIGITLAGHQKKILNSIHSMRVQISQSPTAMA

SH2 binding enrichment [14]	SH2 binding enrichment [15]	SH2 binding enrichment [16]	Sequence	phosphorylation enrichment [1]	phosphorylation enrichment [2]	phosphorylation enrichment [3]	phosphorylation enrichment [4]	phosphorylation enrichment [5]	phosphorylation enrichment [6]	phosphorylation enrichment [7]	phosphorylation enrichment [8]	phosphorylation enrichment [9]	phosphorylation enrichment [10]	phosphorylation enrichment [11]	phosphorylation enrichment [12]	phosphorylation enrichment [13]
1	0.518	0.548	ATATEYHTTSH [SLC4A1_Y46_D45E]	0.506	0.316	0.55	0.456	0.309	0.301	0.509	0.38	0.333	0.99	0.395	0.487	0.413
0.803	0.505	0.59	ATDLAYYLVCK [ASL_Y375_R379C]	2.13	1.08	0.885	3.43	3.06	0.696	1.77	0.852	1.02	2.82	0.884	1.04	1.06
0.759	0.526	0.598	ATGLIYIGSHD [AASDH_Y870_T865A]	0.827	0.724	0.724	0.427	0.684	0.52	1.15	0.427	0.469	0.809	0.543	0.881	0.492
0.721	0.654	0.384	ATHRGYDLDNP [MMUT_Y146_S148L]	0.64	0.459	0.434	0.409	0.727	0.413	0.79	0.392	0.411	0.698	0.343	0.614	0.377
0.933	1.02	0.557	ATPKGYEPDAS [OTC_Y223]	0.738	0.439	0.575	0.49	0.59	0.508	0.843	0.501	0.444	0.79	0.489	0.729	0.541
0.703	0.658	0.427	ATRDVYNPFET [SCAMP3_Y41_L38R]	0.835	0.454	0.454	0.54	0.598	0.457	1.03	1.08	1.06	0.901	0.485	0.617	1.48
0.806	1.07	0.569	AVAFLYFKSIG [ADGRL4_Y301_V300L_YF]	1.14	0.683	0.649	0.549	0.837	0.605	1.62	0.483	0.516	1.33	0.478	0.851	0.441
0.849	0.736	0.662	AVEDQYFCVDC [FHL1_Y207_YF]	2.15	1.17	0.862	5.2	3.66	0.7	1.64	0.775	0.791	1.48	0.622	0.868	0.703
1.06	0.907	0.611	AVLSLYASGST [ACTG2_Y144_R148S]	1.08	0.729	0.722	0.572	0.723	0.558	1.26	0.476	0.638	1.09	0.414	0.829	0.541
0.786	0.648	1.31	AVVEPYNSLLT [TUBA1A_Y185_I188L]	0.888	0.574	0.618	0.399	0.54	0.394	0.891	0.426	0.427	1.19	0.454	0.579	0.463
0.573	0.91	0.463	AYRRGYFDEEM [PLEC_Y2971]	1.13	0.469	0.377	0.477	0.5	0.389	0.906	0.442	0.397	0.849	0.412	0.54	0.371
1	0.902	0.727	CDKEFYSVHNK [MET_Y1235_Y1230C_YF]	0.732	0.461	0.586	0.441	0.606	0.405	0.827	0.504	0.46	0.68	0.423	0.55	0.491
0.967	1.08	14.9	CDSSGYWTPEE [PAPPA2_Y908]	1.25	0.676	0.654	0.579	0.783	0.556	1.47	0.454	0.555	1.22	0.494	0.727	0.508
0.771	0.657	0.575	CEETFYTMKMN [MASP2_Y401_V405M]	1.99	0.939	0.894	0.666	1.11	0.935	1.87	1.59	1.09	1.83	0.829	1.3	2.6
0.934	0.974	0.751	CEHRGCLFLAI [TEK_Y897_Y897C_YF]	1.02	0.554	0.468	0.455	0.624	0.421	1.13	0.334	0.38	0.797	0.298	0.601	0.282
1.03	1.06	0.762	CGQDPCIRELG [UROS_Y19_Y19C]	0.991	0.44	0.508	0.581	0.569	0.458	0.946	0.468	0.423	0.821	0.449	0.644	0.421
0.987	0.908	0.519	CGSLLYGLVHQ [PRKCG_Y122]	0.889	2.22	4.64	0.545	0.663	12.9	1.2	5.73	7.19	0.673	7.41	0.664	5.57

SH2 binding enrichment [14]	SH2 binding enrichment [15]	SH2 binding enrichment [16]	Sequence	phosphorylation enrichment [1]	phosphorylation enrichment [2]	phosphorylation enrichment [3]	phosphorylation enrichment [4]	phosphorylation enrichment [5]	phosphorylation enrichment [6]	phosphorylation enrichment [7]	phosphorylation enrichment [8]	phosphorylation enrichment [9]	phosphorylation enrichment [10]	phosphorylation enrichment [11]	phosphorylation enrichment [12]	phosphorylation enrichment [13]
0.811	0.723	0.575	CHSDDYVHISI [TSC1_Y406_L411I]	1.65	0.898	0.67	1.65	1.29	0.597	1.39	0.532	0.573	1.07	0.457	0.879	0.524
1.09	0.834	0.621	CLAKMYFSAVE [CP_Y539_D544E_YF]	1.22	0.589	0.552	0.599	0.909	0.602	1.35	0.822	0.663	1.19	0.514	0.848	0.721
1.32	1.65	1.28	CLAQRYLIWEC [SCN5A_Y694_R689C]	1.29	0.836	0.646	0.693	0.783	0.568	1.39	0.533	0.535	1.03	0.48	0.788	0.505
2.04	1.53	1.38	CLLHCYFSQIH [MCM3AP_Y873_R878H]	0.886	0.626	0.453	0.689	0.736	0.569	1.29	0.43	0.476	1.26	0.431	0.664	0.476
0.622	0.617	0.42	CNPLCYPTIMI [OR6K6_Y160_R159C]	0.867	0.518	0.524	1.71	0.828	1.37	0.821	0.408	0.442	0.721	0.917	0.596	0.416
1.41	1.97	2.71	CPTIHYNFMCN [TP53_Y234_T230P_YF]	1.09	0.576	0.596	0.687	0.79	0.646	1.17	0.557	0.655	0.916	0.501	0.757	0.603
1.29	0.888	1.17	CQLENYCNGGG [INS_Y108_Y103C]	0.925	0.681	0.696	0.573	0.664	0.49	0.89	0.54	0.57	0.837	0.503	0.621	0.494
0.964	1.24	0.521	CRAVKYLQMVG [AVPR2_Y117]	0.711	0.608	0.44	0.499	0.574	0.443	0.739	0.405	0.504	0.619	0.379	0.522	0.401
1.01	1.03	1.23	CTTIHHNYMCN [TP53_Y234_Y234H]	0.766	0.486	0.531	0.601	0.586	0.412	0.649	0.459	0.455	0.835	0.362	0.525	0.432
1.07	0.836	0.85	CTTIHYNFMHN [TP53_Y234_C238H_YF]	0.829	0.583	0.54	0.457	0.676	0.463	1	0.566	0.517	0.799	0.454	0.765	0.432
1.42	1.4	1.67	CTTIHYNYKCN [TP53_Y234_M237K]	0.754	0.433	0.539	0.526	0.566	0.408	0.878	0.454	0.484	0.62	0.562	0.493	0.454
1.26	2.4	3.68	CTTIHYNYMCH [TP53_Y234_N239H]	0.751	0.724	0.761	0.514	0.706	0.597	0.855	0.449	0.49	0.672	0.407	0.581	0.506
1.47	1.86	3.29	CTTIHYNYTCN [TP53_Y234_M237T]	0.756	0.492	0.556	0.47	0.624	0.476	0.837	0.445	0.416	0.726	0.403	0.585	0.414
0.913	1.1	5.64	CTTIPYNYMCN [TP53_Y234_H233P]	1.18	0.528	0.509	0.543	0.605	0.424	0.863	0.47	0.433	0.791	0.418	0.615	0.55
0.952	0.799	0.641	DAICYYRMENA [NPHS2_Y195]	2.23	0.866	0.795	7.73	6.5	0.736	1.44	1.34	1.11	6.63	1.28	1.03	3.12
0.95	0.553	0.471	DASAVYLRDFQ [PLCG2_Y242_H244R]	0.769	0.506	0.492	0.425	0.58	0.452	0.963	0.562	0.544	0.894	0.675	0.986	0.693
